Here are results for 5 molecules from patent US20220389113A1, “BINDING PROTEINS TO CUB DOMAIN-CONTAINING PROTEIN (CDCP1)” (COMMONWEALTH SCIENTIFIC AND INDUSTRIAL RESEARCH ORGANISATION, priority 2019, published 2022).

Experiment [1] concerns the target human CUB domain-containing protein 1 (CDCP1), expressed by cells (human) (UniProt Q9H5V8). The experiment is described as follows: flow cytometry of TKCC10 cells, 5 µg/ml antibody, APC-conjugated anti-mouse secondary; number in the IgG column (paragraph 330 calls the numbers of the 10D7 column MFI). For orientation: A flow cytometer gives signals particle by particle.

Experiment [2] shares this target. The experiment is described as follows: flow cytometry of PANC-1 cells, 5 µg/ml antibody, APC-conjugated anti-mouse secondary; number in the IgG column (paragraph 330 calls the numbers of the 10D7 column MFI).
The target is the same in experiment [3]. The experiment is described as follows: flow cytometry of TKCC02 cells, 5 µg/ml antibody, APC-conjugated anti-mouse secondary; number in the IgG column (paragraph 330 calls the numbers of the 10D7 column MFI).
The target is the same in experiment [4]. The experiment is described as follows: flow cytometry of TKCC05 cells, 5 µg/ml antibody, APC-conjugated anti-mouse secondary; number in the IgG column (paragraph 330 calls the numbers of the 10D7 column MFI).
The next experiment deals with CDCP1^GFP in HEY cells. The experiment in a line: Live-cell spinning-disk confocal microscopy of HEY-CDCP1^GFP cells. The format is cell-based. The following applies: dasatinib 200 nM pre-treatment. As to the method: Live-cell spinning-disk confocal imaging was performed as described (Stehbens S J, et al., (2014) 16(6):561-73.) on an environmentally controlled Nikon TI inverted microscope (Nikon, New York) equipped with a Borealis-modified Yokogawa CSU-X1 confocal head (Spectral Applied Research, Ontario Canada) and a Clara cooled interline charge-coupled device (CCD) camera (Andor Technology, Belfast, United Kingdom). Dynamics of fluorescent proteins were imaged at 37° C. using a 60×1.49 NA objective (Nikon) with imaging of CDCP1^GFP internalization induced by 10D7^pH performed at ˜1 frame/sec. Image analysis and quantification was performed using Imaris 7.1 software (Bitplane, Zurich, Switzerland) (Morton J P, et al., (2010) 139(1):292-303.). Briefly, the Spots creation wizard automatically subtracted background and detected CDCP1^GFP puncta which were filtered for analysis based on threshold values above 20 for ‘quality’ defined as the intensity at the centre of the puncta, Gaussian filtered by […] (Doyon J B, et al., (2011)13(3):331-7.). Puncta were tracked over sequential frames using the Autoregressive motion particle-tracking algorithm. […] Quantification of track length during the period 0-5 min was determined from the 100 tracks with the highest velocity in each experimental group. […]

In experiment [5] the target is T1, recombinant CDCP1-ECD, spanning residue 30 to 665 (human, UniProt Q9H5V8 30-665).
T1 construct: Recombinant protein described in Chen Y et al. 2017; also called CDCP1 extracellular domain (ECD)
T1 sequence: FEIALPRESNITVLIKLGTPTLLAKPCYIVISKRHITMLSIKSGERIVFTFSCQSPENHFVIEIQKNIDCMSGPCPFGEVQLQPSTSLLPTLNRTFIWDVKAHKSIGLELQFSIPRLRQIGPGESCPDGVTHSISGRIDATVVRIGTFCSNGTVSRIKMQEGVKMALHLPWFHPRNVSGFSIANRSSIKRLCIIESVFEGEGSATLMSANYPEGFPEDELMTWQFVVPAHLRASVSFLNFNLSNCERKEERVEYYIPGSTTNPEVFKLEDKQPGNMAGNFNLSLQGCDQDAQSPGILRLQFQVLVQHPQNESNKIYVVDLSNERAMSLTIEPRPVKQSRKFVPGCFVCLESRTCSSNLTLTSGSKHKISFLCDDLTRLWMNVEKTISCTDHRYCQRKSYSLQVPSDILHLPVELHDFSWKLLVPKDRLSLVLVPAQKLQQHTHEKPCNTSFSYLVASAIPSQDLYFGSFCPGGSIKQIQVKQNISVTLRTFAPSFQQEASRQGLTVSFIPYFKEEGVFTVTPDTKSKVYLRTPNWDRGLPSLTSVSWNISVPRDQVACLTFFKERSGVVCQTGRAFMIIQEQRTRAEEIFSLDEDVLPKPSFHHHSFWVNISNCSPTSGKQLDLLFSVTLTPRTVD
The experiment in a line: SPR, Biacore T200, antibody captured via Protein G, CDCP1-ECD analyte; reference 41-2.

Experiment [6] addresses T1, recombinant CDCP1-ECD, spanning residue …. The experiment in a line: SPR, Biacore T200, antibody captured via Protein G on CM5 chip, CDCP1-ECD analyte 50 to 1.56 nM, 25 C.
Experiment [7] shares this target. The experiment is described as follows: SPR (Biacore T200), antibody captured via Protein G on a CM5 chip, CDCP1-ECD 1.56 to 50 nM as analyte, 25 °C. On the technique in general: Surface plasmon resonance follows binding to a sensor surface in real time, without labels.
The test system of a further experiment is TKCC05 cells. The experiment in a line: Confocal microscopy of TKCC05 cells treated with 10D7-Qdot. The format is cell-based, human. As to the method:
Labelling of antibody 10D7 with fluorescent Qdot 625 probes was performed using a kit supplied by the manufacturer. TKCC05 cells were grown on poly-Lysine treated […] chamber slides (DKSH, Hallam, Australia) until 70% confluent then incubated with 10D7-Qdot. After 5, 10 and 120 min cells were fixed with 4% paraformaldehyde for 15 min at room temperature (RT), washed with PBS, then incubated with DAPI to highlight cell nuclei and Alexa Fluor 488 phalloidin to highlight cell cytoplasms (30 min at RT). Imaging was performed on a Nikon/Spectral Spinning Disc Confocal microscope.
To assess the impact of antibody 10D7 on CDCP1 expressed by PDAC, the inventors performed confocal microscopy and western blot analysis of patient-derived PDAC cells treated with this antibody for defined periods of time. […] Western blot analysis confirmed that 10D7 induces rapid transient tyrosine phosphorylation of CDCP1-ATF in TKCC05 cells and CDCP1-FL in TKCC10 cells, while Src was also transiently tyrosine phosphorylated in these cells in response to 10D7 (FIG. 11B). […] The data are consistent with CDCP1-ATF remaining tethered to the plasma membrane likely via CDCP1-CTF and indicate that intact and cleaved CDCP1 can be functionally targeted with antibody 10D7 in PDAC cells. Thus, antibody 10D7 is effective at targeting uncleaved as well as cleaved CDCP1 that are present on the surface of cancer cells.

Experiment [8] addresses T2, human CUB domain-containing protein 1 (CDCP1), expressed by cells (human, UniProt Q9H5V8 30-836).
T2 construct: also called CDCP1-FL; CD318
T2 sequence: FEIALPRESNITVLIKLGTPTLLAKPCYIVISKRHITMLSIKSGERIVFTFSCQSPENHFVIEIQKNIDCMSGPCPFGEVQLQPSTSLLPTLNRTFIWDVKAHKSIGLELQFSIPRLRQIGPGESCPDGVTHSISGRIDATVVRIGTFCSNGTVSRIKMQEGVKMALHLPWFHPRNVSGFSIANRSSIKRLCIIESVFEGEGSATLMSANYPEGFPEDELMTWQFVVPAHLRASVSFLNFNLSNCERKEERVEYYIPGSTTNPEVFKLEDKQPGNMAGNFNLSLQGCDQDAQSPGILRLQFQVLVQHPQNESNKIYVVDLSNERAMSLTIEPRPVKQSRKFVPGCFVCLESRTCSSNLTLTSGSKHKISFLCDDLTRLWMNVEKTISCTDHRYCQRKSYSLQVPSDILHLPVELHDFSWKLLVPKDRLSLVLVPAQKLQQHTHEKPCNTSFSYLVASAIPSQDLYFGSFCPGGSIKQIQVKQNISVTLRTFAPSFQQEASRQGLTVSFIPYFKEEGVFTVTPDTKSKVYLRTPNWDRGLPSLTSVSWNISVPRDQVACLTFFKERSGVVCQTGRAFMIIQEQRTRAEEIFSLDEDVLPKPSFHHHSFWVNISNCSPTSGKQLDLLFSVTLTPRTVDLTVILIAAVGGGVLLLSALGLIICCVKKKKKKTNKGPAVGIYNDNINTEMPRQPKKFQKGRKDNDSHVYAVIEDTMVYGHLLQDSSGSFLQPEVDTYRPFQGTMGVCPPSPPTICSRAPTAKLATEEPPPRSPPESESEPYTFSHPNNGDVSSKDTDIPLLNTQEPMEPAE
The experiment in a line: summary of co-IP, SEC and reducing/non-reducing Western blots. In general terms: Immunoblotting shows a protein as a band on a membrane.

The term Kd denotes the free concentration of one partner at which half of the binding sites on the other are occupied at equilibrium, for simple one-to-one binding. For orientation: koff means the first-order rate constant of dissociation. The kon is a measure of how fast the partners come together.

Some results are limits rather than exact numbers.

As for IgG (antibody), the MFI in experiment [1] was 133; in experiment [2], 202; in experiment [3], 216; in experiment [4] it was 234.
Consider `Cc1nc(Nc2ncc(C(=O)Nc3c(C)cccc3Cl)s2)cc(N2CCN(CCO)CC2)n1` [dasatinib], for which the “reduction of CDCP1^GFP track length in response to 10D7” value in the experiment with CDCP1^GFP in HEY cells is recorded as “about 80%”.

B1: anti-CDCP1 mouse monoclonal antibody 10D7 (antibody, V domains shown)
VH: EVQLQQFGAELVKPGASVKISCKASGYSFSDFNIEWLKQSHGKSLEWIGDINPNYDSTNYNQKFKGRATLTVDKSSSTAYMEVRSLTSEDTAVYYCARLGYGYAMDYWGQGTSVTVSS
VL: NIVMTQSPQSMSMSVGERVTLSCKASENVGAYVSWFQQKPDQSPKLLILAASNRYTGVPARFIGSGSATDFTLTISSVQAEDLADYHCGQSYTYPYTFGGGTKLEIKR
notes: also called mAb 10D7; mouse 10D7 antibody
Regarding B1, the “fold stronger KD than 41-2” value in [5] amounted to 2.7 fold. In experiment [6], the Kd was determined as 0.44 nM. Further, in [7], the koff was 0.000441 s⁻¹ and the on-rate constant (kon) came to 1e+06 M⁻¹ s⁻¹.

B2: 10D7-Qdot (conjugate)
VH: EVQLQQFGAELVKPGASVKISCKASGYSFSDFNIEWLKQSHGKSLEWIGDINPNYDSTNYNQKFKGRATLTVDKSSSTAYMEVRSLTSEDTAVYYCARLGYGYAMDYWGQGTSVTVSS
VL: NIVMTQSPQSMSMSVGERVTLSCKASENVGAYVSWFQQKPDQSPKLLILAASNRYTGVPARFIGSGSATDFTLTISSVQAEDLADYHCGQSYTYPYTFGGGTKLEIKRADAAPTVS
In the case of B2, the “time until apparent on the plasma membrane” value with TKCC05 cells was ≤ 5 min. Besides, in the experiment on TKCC05 cells (after 120 min), the internalization of antibody entry is on record as “largely internalized”.

B3: CDCP1 amino-terminal fragment (CDCP1-ATF), 65 kDa (receptor)
chain: FEIALPRESNITVLIKLGTPTLLAKPCYIVISKRHITMLSIKSGERIVFTFSCQSPENHFVIEIQKNIDCMSGPCPFGEVQLQPSTSLLPTLNRTFIWDVKAHKSIGLELQFSIPRLRQIGPGESCPDGVTHSISGRIDATVVRIGTFCSNGTVSRIKMQEGVKMALHLPWFHPRNVSGFSIANRSSIKRLCIIESVFEGEGSATLMSANYPEGFPEDELMTWQFVVPAHLRASVSFLNFNLSNCERKEERVEYYIPGSTTNPEVFKLEDKQPGNMAGNFNLSLQGCDQDAQSPGILRLQFQVLVQHPQNESNKIYVVDLSNERAMSLTIEPRPVKQSR
notes: Product of proteolytic cleavage of CDCP1
Consider B3, for which, in [8], the binding result was “binds”.
